Laboratory results published in article PMC10266016 (Proceedings of the National Academy of Sciences of the …, 2023).
Numbering of substitutions follows the chain as printed.

Tests used:
Assay in all cases: ITC
[1] = target: Human Scribble PDZ3 domain (human) (UniProt Q14160)
[2] = target: Human Scribble PDZ1 domain (human) (UniProt Q14160)
[3] = target: Scribble PDZ1 R762A (human, UniProt Q14160 700-816, R762A)
[4] = target: T1, Human Scribble PDZ3 domain (human, UniProt Q14160 1002-1092)
T1 sequence: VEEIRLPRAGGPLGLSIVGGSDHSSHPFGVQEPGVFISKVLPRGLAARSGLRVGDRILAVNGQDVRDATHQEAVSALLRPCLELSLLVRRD

[5] = target: T2, Scribble PDZ3 K1040A (human, UniProt Q14160 1002-1092, K1040A)
T2 sequence: T1 sequence with K39A

[6] = target: Human Scribble PDZ1 domain (human, UniProt Q14160 700-816)
Sequence of Human Scribble PDZ1 domain (Q14160 700-816): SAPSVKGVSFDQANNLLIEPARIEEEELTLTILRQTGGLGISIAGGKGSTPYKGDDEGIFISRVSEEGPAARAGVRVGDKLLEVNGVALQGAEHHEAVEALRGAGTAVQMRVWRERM

Sequence of Scribble PDZ1 R762A (Q14160 700-816 R762A): as the sequence (Q14160 700-816) above, with R63A counted along it
Sequence of Human Scribble PDZ1 domain (human) (Q14160 700-816): as the sequence (Q14160 700-816) above

Molecule | Kd [1] [µM] | Kd [2] [µM] | Kd [3] [µM] | Kd [4] [µM] | Kd [5] [µM] | Kd [6] [µM]
PTHR PBM peptide, 4-mer | 17.1 | 57 | – | – | – | –
QEEWETVM [PTHR PBM peptide, 8-mer] | – | – | 39.9 | 13.4 | 23.5 | 31.7
DEEASGPERPPALLQEEWETVM [PTHR PBM peptide, 22-mer] | – | – | – | 19.2 | – | 11.5
